The values that follow come from paper PMC12808100 (Nature Communications, 2025).

*: point of attachment. Biotin = O=C1N[C@H]2[C@H](CS[C@H]2CCCCC(=O)*)N1; TTDS = Trioxatridecan-succinamic acid linker

One experiment deals with T1, EPS15 (human (endogenous in Jurkat), UniProt P42566 1-896).
T1 construct: EPS15, EH protein with three EH domains, endogenous in Jurkat E6.1 extract, detected by western blot with an EPS15 antibody; also called endogenous EPS15; EH protein with three EH domains; source: endogenous, total Jurkat extract
T1 sequence (looked up): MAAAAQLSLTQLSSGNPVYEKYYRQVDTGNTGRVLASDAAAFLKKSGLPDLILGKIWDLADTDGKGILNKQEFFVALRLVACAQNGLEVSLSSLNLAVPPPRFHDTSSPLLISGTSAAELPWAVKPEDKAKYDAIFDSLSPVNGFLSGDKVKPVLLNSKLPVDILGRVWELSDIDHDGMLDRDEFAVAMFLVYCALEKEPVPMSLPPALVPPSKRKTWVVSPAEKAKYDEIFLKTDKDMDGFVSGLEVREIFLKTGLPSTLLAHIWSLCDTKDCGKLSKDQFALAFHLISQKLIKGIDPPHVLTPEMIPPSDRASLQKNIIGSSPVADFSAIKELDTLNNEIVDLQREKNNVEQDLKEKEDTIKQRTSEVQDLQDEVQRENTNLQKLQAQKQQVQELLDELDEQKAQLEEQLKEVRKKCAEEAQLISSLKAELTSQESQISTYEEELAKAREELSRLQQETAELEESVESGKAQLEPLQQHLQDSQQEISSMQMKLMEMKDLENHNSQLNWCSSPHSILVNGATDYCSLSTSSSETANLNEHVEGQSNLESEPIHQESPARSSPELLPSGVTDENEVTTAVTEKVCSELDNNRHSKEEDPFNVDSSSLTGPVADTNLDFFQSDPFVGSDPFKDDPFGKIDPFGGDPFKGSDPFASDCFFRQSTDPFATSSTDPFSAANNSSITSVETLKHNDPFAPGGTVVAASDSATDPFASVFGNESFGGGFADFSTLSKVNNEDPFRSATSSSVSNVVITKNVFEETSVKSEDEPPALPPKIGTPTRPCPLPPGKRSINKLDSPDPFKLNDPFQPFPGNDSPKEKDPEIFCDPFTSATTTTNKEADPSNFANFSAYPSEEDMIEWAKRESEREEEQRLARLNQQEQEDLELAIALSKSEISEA
Nature of the experiment: native holdup (nHU) titration with western blot; biotinylated peptide bait on streptavidin resin, bait-saturated and control (biotin) resin mixed at various proportions; total Jurkat extract as analyte; 4 °C, 2 h; endogenous POLE and EPS15 left in the supernatant quantified by western blot; apparent dissociation constants. The note with it: one partner purified. On the technique in general: In western blotting, separated proteins are transferred to a membrane and probed.

Experiment [1] deals with T2, His6-AviTag-MBP-TEV-POLE2 (human, UniProt P56282 1-527, biotin on the AviTag (BirA co-expressed, biotin in the medium)).
T2 construct: POLE2, residues 1-527; a TEV site lies between MBP and POLE2; also called His6-avi-MBP-tagged POLE2; avi-His6-MBP-POLE2; source: E. coli BL21(DE3), co-expressed with BirA, purified (HisTrap, MBPtrap, Q HP); not shown: His6, N-terminal, kept; AviTag, N-terminal, kept; MBP, N-terminal, kept
T2 sequence (P56282 whole entry, the tested form may be a part): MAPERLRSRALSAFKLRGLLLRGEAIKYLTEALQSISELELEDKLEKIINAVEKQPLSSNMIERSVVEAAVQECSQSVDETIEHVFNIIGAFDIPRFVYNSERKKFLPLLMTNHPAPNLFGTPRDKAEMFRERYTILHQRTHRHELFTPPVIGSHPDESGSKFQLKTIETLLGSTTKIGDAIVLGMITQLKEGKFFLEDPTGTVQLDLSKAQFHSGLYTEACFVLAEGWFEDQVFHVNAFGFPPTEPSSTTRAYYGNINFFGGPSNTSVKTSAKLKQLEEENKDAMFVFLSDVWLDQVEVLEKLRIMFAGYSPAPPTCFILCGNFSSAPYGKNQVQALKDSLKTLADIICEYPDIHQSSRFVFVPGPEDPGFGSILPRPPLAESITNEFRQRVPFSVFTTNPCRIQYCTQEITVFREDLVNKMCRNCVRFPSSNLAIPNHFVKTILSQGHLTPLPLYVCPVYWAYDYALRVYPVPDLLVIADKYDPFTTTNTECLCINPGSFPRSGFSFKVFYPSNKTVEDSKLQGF
Nature of the experiment: native holdup (nHU) titration with dot blot; purified His6-avi-MBP-tagged POLE2 as bait on resin; extracts of HEK293T cells transfected with HA-tagged full length proteins; 4 °C, 2 h; anti-HA dot blot; apparent. As to conditions: one partner purified.

B1: DONSON-SYNJ1 chimera peptide, N-terminal flank replaced (peptide)
chain: GPAATRTNPFARLDNRPR
HELM: PEPTIDE1{[O=C1N[C@H]2[C@H](CS[C@H]2CCCCC(=O)[*:2])N1].[O=C(CCCCCN[*:1])[*:2]].G.P.A.A.T.R.T.N.P.F.A.R.L.D.N.R.P.R.[am]}$$$$V2.0
SMILES: CC(C)C[C@H](NC(=O)[C@H](CCCNC(=N)N)NC(=O)[C@H](C)NC(=O)[C@H](Cc1ccccc1)NC(=O)[C@@H]1CCCN1C(=O)[C@H](CC(N)=O)NC(=O)[C@@H](NC(=O)[C@H](CCCNC(=N)N)NC(=O)[C@@H](NC(=O)[C@H](C)NC(=O)[C@H](C)NC(=O)[C@@H]1CCCN1C(=O)CNC(=O)CCCCCNC(=O)CCCC[C@@H]1SC[C@@H]2NC(=O)N[C@@H]21)[C@@H](C)O)[C@@H](C)O)C(=O)N[C@@H](CC(=O)O)C(=O)N[C@@H](CC(N)=O)C(=O)N[C@@H](CCCNC(=N)N)C(=O)N1CCC[C@H]1C(=O)N[C@@H](CCCNC(=N)N)C(N)=O
In the case of B1, in the experiment with EPS15, the Kd was > 30 µM.

B2: NPF motif peptide of SYNJ1 (residues 1390-1421) (peptide)
peptide: RSSPNPFITGLTRTNPFSDRTAAPGNPFRAKS
HELM: PEPTIDE1{[O=C1N[C@H]2[C@H](CS[C@H]2CCCCC(=O)[*:2])N1].[O=C(CCCCCN[*:1])[*:2]].R.S.S.P.N.P.F.I.T.G.L.T.R.T.N.P.F.S.D.R.T.A.A.P.G.N.P.F.R.A.K.S.[am]}$$$$V2.0
SMILES: CC[C@H](C)[C@H](NC(=O)[C@H](Cc1ccccc1)NC(=O)[C@@H]1CCCN1C(=O)[C@H](CC(N)=O)NC(=O)[C@@H]1CCCN1C(=O)[C@H](CO)NC(=O)[C@H](CO)NC(=O)[C@H](CCCNC(=N)N)NC(=O)CCCCCNC(=O)CCCC[C@@H]1SC[C@@H]2NC(=O)N[C@@H]21)C(=O)N[C@H](C(=O)NCC(=O)N[C@@H](CC(C)C)C(=O)N[C@H](C(=O)N[C@@H](CCCNC(=N)N)C(=O)N[C@H](C(=O)N[C@@H](CC(N)=O)C(=O)N1CCC[C@H]1C(=O)N[C@@H](Cc1ccccc1)C(=O)N[C@@H](CO)C(=O)N[C@@H](CC(=O)O)C(=O)N[C@@H](CCCNC(=N)N)C(=O)N[C@H](C(=O)N[C@@H](C)C(=O)N[C@@H](C)C(=O)N1CCC[C@H]1C(=O)NCC(=O)N[C@@H](CC(N)=O)C(=O)N1CCC[C@H]1C(=O)N[C@@H](Cc1ccccc1)C(=O)N[C@@H](CCCNC(=N)N)C(=O)N[C@@H](C)C(=O)N[C@@H](CCCCN)C(=O)N[C@@H](CO)C(N)=O)[C@@H](C)O)[C@@H](C)O)[C@@H](C)O)[C@@H](C)O
notes: SYNJ1, residues 1390-1421, contains three NPF motifs; also called SYNJ1_1390-1421; triple motif of SYNJ1; source: synthetic peptide; bought: Synpeptide
B2: in the experiment with EPS15, the Kd came out at 1 µM.

B3: NPF motif peptide of DONSON (residues 71-88) (peptide)
peptide: {Biotin-TTDS}-GPAAARRNPFARLDNRPR-NH2
notes: Protein downstream neighbor of Son (DONSON), residues 71-88; also called DONSON_71-88; DONSON_718-88 (as printed in the sheet); source: synthetic peptide (ABI 443 A synthesizer, Fmoc strategy)
Turning to B3, in the experiment with EPS15, the Kd is > 60 µM.

B4: HA-WDHD1, full length, NPF motif mutated to KAF (natural protein, human, UniProt O75717 1-1129, looked up)
chain: MPATRKPMRYGHTEGHTEVCFDDSGSFIVTCGSDGDVRIWEDLDDDDPKFINVGEKAYSCALKSGKLVTAVSNNTIQVHTFPEGVPDGILTRFTTNANHVVFNGDGTKIAAGSSDFLVKIVDVMDSSQQKTFRGHDAPVLSLSFDPKDIFLASASCDGSVRVWQISDQTCAISWPLLQKCNDVINAKSICRLAWQPKSGKLLAIPVEKSVKLYRRESWSHQFDLSDNFISQTLNIVTWSPCGQYLAAGSINGLIIVWNVETKDCMERVKHEKGYAICGLAWHPTCGRISYTDAEGNLGLLENVCDPSGKTSSSKVSSRVEKDYNDLFDGDDMSNAGDFLNDNAVEIPSFSKGIINDDEDDEDLMMASGRPRQRSHILEDDENSVDISMLKTGSSLLKEEEEDGQEGSIHNLPLVTSQRPFYDGPMPTPRQKPFQSGSTPLHLTHRFMVWNSIGIIRCYNDEQDNAIDVEFHDTSIHHATHLSNTLNYTIADLSHEAILLACESTDELASKLHCLHFSSWDSSKEWIIDLPQNEDIEAICLGQGWAAAATSALLLRLFTIGGVQKEVFSLAGPVVSMAGHGEQLFIVYHRGTGFDGDQCLGVQLLELGKKKKQILHGDPLPLTRKSYLAWIGFSAEGTPCYVDSEGIVRMLNRGLGNTWTPICNTREHCKGKSDHYWVVGIHENPQQLRCIPCKGSRFPPTLPRPAVAILSFKLPYCQIATEKGQMEEQFWRSVIFHNHLDYLAKNGYEYEESTKNQATKEQQELLMKMLALSCKLEREFRCVELADLMTQNAVNLAIKYASRSRKLILAQKLSELAVEKAAELTATQVEEEEEEEDFRKKLNAGYSNTATEWSQPRFRNQVEEDAEDSGEADDEEKPEIHKPGQNSFSKSTNSSDVSAKSGAVTFSSQGRVKAFKVSASSKEPAMSMNSARSTNILDNMGKSSKKSTALSRTTNNEKSPIIKPLIPKPKPKQASAASYFQKRNSQTNKTEEVKEENLKNVLSETPAICPPQNTENQRPKTGFQMWLEENRSNILSDNPDFSDEADIIKEGMIRFRVLSTEERKVWANKAKGETASEGTEAKKRKRVVDESDETENQEEKAKENLNLSKKQKPLDFSTNQKLSAFAFKQE
notes: WDHD1, residues 1-1129; also called WDHD1 mutant; source: HEK293T, transfected, in cell extract; not shown: HA, N-terminal, kept
Consider B4, for which the “fold weaker affinity than the wild type” value in experiment [1] amounted to 1000 fold.

B5: DONSON-SYNJ1 chimera peptide, C-terminal flank replaced (peptide)
chain: GPAAARRNPFSDRDNRPR
HELM: PEPTIDE1{[O=C1N[C@H]2[C@H](CS[C@H]2CCCCC(=O)[*:2])N1].[O=C(CCCCCN[*:1])[*:2]].G.P.A.A.A.R.R.N.P.F.S.D.R.D.N.R.P.R.[am]}$$$$V2.0
SMILES: C[C@H](NC(=O)[C@H](C)NC(=O)[C@@H]1CCCN1C(=O)CNC(=O)CCCCCNC(=O)CCCC[C@@H]1SC[C@@H]2NC(=O)N[C@@H]21)C(=O)N[C@@H](C)C(=O)N[C@@H](CCCNC(=N)N)C(=O)N[C@@H](CCCNC(=N)N)C(=O)N[C@@H](CC(N)=O)C(=O)N1CCC[C@H]1C(=O)N[C@@H](Cc1ccccc1)C(=O)N[C@@H](CO)C(=O)N[C@@H](CC(=O)O)C(=O)N[C@@H](CCCNC(=N)N)C(=O)N[C@@H](CC(=O)O)C(=O)N[C@@H](CC(N)=O)C(=O)N[C@@H](CCCNC(=N)N)C(=O)N1CCC[C@H]1C(=O)N[C@@H](CCCNC(=N)N)C(N)=O
Take B5: the Kd in the experiment with EPS15 is > 20 µM.

B6: DONSON-SYNJ1 chimera peptide, both flanks replaced (peptide)
chain: GPAATRTNPFSDRDNRPR
HELM: PEPTIDE1{[O=C1N[C@H]2[C@H](CS[C@H]2CCCCC(=O)[*:2])N1].[O=C(CCCCCN[*:1])[*:2]].G.P.A.A.T.R.T.N.P.F.S.D.R.D.N.R.P.R.[am]}$$$$V2.0
SMILES: C[C@H](NC(=O)[C@H](C)NC(=O)[C@@H]1CCCN1C(=O)CNC(=O)CCCCCNC(=O)CCCC[C@@H]1SC[C@@H]2NC(=O)N[C@@H]21)C(=O)N[C@H](C(=O)N[C@@H](CCCNC(=N)N)C(=O)N[C@H](C(=O)N[C@@H](CC(N)=O)C(=O)N1CCC[C@H]1C(=O)N[C@@H](Cc1ccccc1)C(=O)N[C@@H](CO)C(=O)N[C@@H](CC(=O)O)C(=O)N[C@@H](CCCNC(=N)N)C(=O)N[C@@H](CC(=O)O)C(=O)N[C@@H](CC(N)=O)C(=O)N[C@@H](CCCNC(=N)N)C(=O)N1CCC[C@H]1C(=O)N[C@@H](CCCNC(=N)N)C(N)=O)[C@@H](C)O)[C@@H](C)O
In the case of B6, in the experiment with EPS15, the Kd was > 200 µM.
